Results as given in US20210301011A1, “COMPOSITION FOR PROPHYLAXIS OR TREATMENT OF IL-8 RELATED DISEASES” (CHUGAI SEIYAKU KABUSHIKI KAISHA, priority 2016, published 2021).

Experiments:
[1] = commercially available antibodies, known values; cited from earlier work
[2] = tested on: pulmonary function (FEV1); settings: clinical trials for COPD patients; worsened in the placebo group; cited from earlier work
neutrophil migration = settings: clinical trials against cystic fibrosis; cited from earlier work
[3] = molecular target: T1, cynomolgus monkey FcγRIIIa (Macaca fascicularis, UniProt Q8SPW2); assay: Binding to soluble FcγR (BIACORE T200); settings: 20° C., HBS-EP+
T1 construct: the soluble forms of FcγRIa and FcγRIIIa in human and cynomolgus monkey; His tag; made in house
T1 sequence (Q8SPW2 17-208 limits assumed): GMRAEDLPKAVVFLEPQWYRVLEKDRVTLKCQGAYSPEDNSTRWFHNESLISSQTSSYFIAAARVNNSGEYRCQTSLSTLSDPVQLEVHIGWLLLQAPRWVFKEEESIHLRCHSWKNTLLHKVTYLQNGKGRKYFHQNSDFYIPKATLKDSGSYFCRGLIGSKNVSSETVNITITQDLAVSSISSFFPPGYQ
Method: (§1) Soluble FcγRIa and FcγRIIIa in both human and cynomolgus monkey were produced in the form of His-tagged molecules by methods known to those of ordinary skill in the art. […] Next, soluble FcγRIa or FcγRIIIa was injected with a running buffer (used as a reference solution), and was made to interact with the antibodies captured onto the sensor chip. HBS-EP+(GE Healthcare) was used as the running buffer, and HBS-EP+ was also used to dilute the soluble FcγRIa or FcγRIIIa. […] All measurements were carried out at 20° C.

cynomolgus monkey FcγRIa = assay: Binding to soluble FcγR (BIACORE T200); settings: 20° C., HBS-EP+
Method: as §1

human FcγRIIIa = molecular target: T2, human FcγRIIIa (Homo sapiens, UniProt P08637); assay: Binding to soluble FcγR (BIACORE T200); settings: 20° C., HBS-EP+
T2 construct: the soluble forms of FcγRIa and FcγRIIIa in human and cynomolgus monkey; His tag; made in house
T2 sequence (P08637 17-208 limits assumed): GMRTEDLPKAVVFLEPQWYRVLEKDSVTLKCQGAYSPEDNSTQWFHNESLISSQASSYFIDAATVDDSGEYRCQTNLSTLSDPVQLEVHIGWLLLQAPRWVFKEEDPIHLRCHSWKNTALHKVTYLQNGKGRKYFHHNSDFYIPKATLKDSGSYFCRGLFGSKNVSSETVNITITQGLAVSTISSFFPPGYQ
Method: as §1

human FcγRIa = molecular target: T3, human FcγRIa (Homo sapiens, UniProt P12314); assay: Binding to soluble FcγR (BIACORE T200); settings: 20° C., HBS-EP+
T3 construct: the soluble forms of FcγRIa and FcγRIIIa in human and cynomolgus monkey; His tag; made in house
T3 sequence (P12314 16-292 limits assumed): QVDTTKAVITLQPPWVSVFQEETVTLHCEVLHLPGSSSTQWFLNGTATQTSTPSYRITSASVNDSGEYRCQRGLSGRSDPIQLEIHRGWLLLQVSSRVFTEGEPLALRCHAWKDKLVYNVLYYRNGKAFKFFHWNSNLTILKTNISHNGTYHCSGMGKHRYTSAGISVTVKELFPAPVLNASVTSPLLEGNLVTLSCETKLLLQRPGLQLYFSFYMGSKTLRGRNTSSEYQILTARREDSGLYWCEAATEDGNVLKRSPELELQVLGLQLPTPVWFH
Method: as §1

In the case of “Zenapax: commercially available antibody”, the “frequency of ADA development in humans” value [1] is listed as 14%.

For CC[C@@H](Nc1c(Nc2cccc(C(=O)N(C)C)c2O)c(=O)c1=O)c1ccc(C)o1 [MK7123], the “pulmonary function (FEV1)” value [2] is given as “pulmonary function (FEV1) was improved in the active drug group”.

In the case of O=C(Nc1ccc(Cl)c(S(=O)(=O)N2CCNCC2)c1O)Nc1cccc(F)c1Cl [Elubrixin], the topical neutrophil migration (neutrophil migration) is listed as “Topical neutrophil migration was observed to be suppressed”.

In the case of “Campath: commercially available antibody”, the “frequency of ADA development in humans” value [1] is given as 45%.

B1: H1009/L395-F1886m: variable region of H1009/L395 with Fc variant F1886m (antibody)
heavy: QVQLVESGGGLVQPGGSLRLSCAASGFTFSDYYLSWVRQAPGKGLEWVGLIRNKDNYHTPEYSASVKGRFTISRDDSKNSLYLTMSDLKTEDTAVYYCARENHRYDVELAYWGQGTLVTVSSASTKGPSVFPLAPSSKSTSGGTAALGCLVKDYFPEPVTVSWNSGALTSGVHTFPAVLQSSGLYSLSSVVTVPSSSLGTQTYICNVNHKPSNTKVDKKVEPKSCDKTHTCPPCPAPELLGGPSVFLFPPKPKDTLMISRTPEVTCVVVDVSHEDPEVKFNWYVDGVEVHNAKTKPREEQYNSTYRVVSVLTVLHQDWLNGKEYKCKVSNKALPAPIEKTISKAKGQPREPQVYTLPPSREEMTKNQVSLTCLVKGFYPSDIAVEWESNGQPENNYKTTPPVLDSDGSFFLYSKLTVDKSRWQQGNVFSCSVLHEALHAHTTRKELSLSP
light: DIQMTQSPSSLSASVGDRVTITCRASEIIYSYLAWYQQKPGKAPKLLIYKAKTHADGVPSRFSGSGSGTDFTFTISSLQPEDIATYYCKHHFGFPRTFGQGTKVEIKRTVAAPSVFIFPPSDEQLKSGTASVVCLLNNFYPREAKVQWKVDNALQSGNSQESVTEQDSKDSTYSLSSTLTLSKADYEKHKVYACEVTHQGLSSPVTKSFNRGEC
For B1, the “binding to soluble cynomolgus monkey FcγRIIIa” value [3] was “bind to all FcγRs”, the “binding to soluble cynomolgus monkey FcγRIa” value (cynomolgus monkey FcγRIa) was “bind to all FcγRs” and the “binding to soluble human FcγRIIIa” value (human FcγRIIIa) was “bind to all FcγRs”. The “binding to soluble human FcγRIa” value (human FcγRIa) was “bind to all FcγRs”.
